The values below come from PMC6497562 (Molecular cancer research : MCR, 2019).

This assay addresses neurofibromin (human (endogenous in 786-0 and RCC4), UniProt P21359-2 1-2818). The assay is described as follows: co-IP.

B1: hypoxia-associated factor (HAF), endogenous (natural protein, human (endogenous in 786-0), UniProt O43290 1-800, looked up)
chain: MGSSKKHRGEKEAAGTTAAAGTGGATEQPPRHREHKKHKHRSGGSGGSGGERRKRSRERGGERGSGRRGAEAEARSSTHGRERSQAEPSERRVKREKRDDGYEAAASSKTSSGDASSLSIEETNKLRAKLGLKPLEVNAIKKEAGTKEEPVTADVINPMALRQREELREKLAAAKEKRLLNQKLGKIKTLGEDDPWLDDTAAWIERSRQLQKEKDLAEKRAKLLEEMDQEFGVSTLVEEEFGQRRQDLYSARDLQGLTVEHAIDSFREGETMILTLKDKGVLQEEEDVLVNVNLVDKERAEKNVELRKKKPDYLPYAEDESVDDLAQQKPRSILSKYDEELEGERPHSFRLEQGGTADGLRERELEEIRAKLRLQAQSLSTVGPRLASEYLTPEEMVTFKKTKRRVKKIRKKEKEVVVRADDLLPLGDQTQDGDFGSRLRGRGRRRVSEVEEEKEPVPQPLPSDDTRVENMDISDEEEGGAPPPGSPQVLEEDEAELELQKQLEKGRRLRQLQQLQQLRDSGEKVVEIVKKLESRQRGWEEDEDPERKGAIVFNATSEFCRTLGEIPTYGLAGNREEQEELMDFERDEERSANGGSESDGEENIGWSTVNLDEEKQQQDFSASSTTILDEEPIVNRGLAAALLLCQNKGLLETTVQKVARVKAPNKSLPSAVYCIEDKMAIDDKYSRREEYRGFTQDFKEKDGYKPDVKIEYVDETGRKLTPKEAFRQLSHRFHGKGSGKMKTERRMKKLDEEALLKKMSSSDTPLGTVALLQEKQKAQKTPYIVLSGSGKSMNANTITK
On to B1, for which the “fold increase of binding in hypoxia over normoxia” value was about 2 fold.
